Measured values reported in patent US7893021B2, “Parathyroid hormone antagonists and uses thereof” (Scantibodies Laboratory, Inc., priority 1999, dated 2011).
Several values for one entry are separate records, joined by “and”; a condition that tells them apart may be missing. Identical values can stand only once. Entries after “also recorded” stand apart in the source; their conditions may differ.

Tests used:
[1] = tested on: Normal female Sprague-Dawley rats; test: Phosphaturic response (clearance studies: GFR and FEPO4) in rats; format: in vivo, rat; conditions: for glomerular filtration rate (GFR), hPTH 7-84 given with hPTH 1-84: hPTH 7-84 given five minutes prior to hPTH 1-84, molar ratio 4:1, N=8, control period 2.1±0.1
Description: Phosphaturic response. Normal female Sprague-Dawley rats weighing 225 to 250 g were prepared for clearance studies under light anesthesia. Polyethylene catheters (PE50) were placed in the femoeral artery for the collection of blood and measurement of blood pressure (Blood Pressure Analyzer; Micro-Medic, Inc., Louisville, Ky., USA), in the femoral vein for infusion and in the bladder for the collection of urine. Rats were placed in Plexiglass holders and allowed to recover from the effect of the anesthetic for one hour. A priming dose (0.6 mL) of chemical inulin in saline was administered over a period of three minutes to achieve a plasma inulin level between […]. A solution of saline containing inulin to maintain this level and calcium gluconate to deliver 0.5 mg. calcium was infused at the rate of 0.03 mL/min. After equilibration, a total of four 30-minute urine collections was obtained.
To assess the effect of hPTH 1-84 on phosphate excretion, urine was collected during two control periods, after which rats received a priming bolus of 1.8 μg of HPTH 1-84 followed by a sustained infusion that delivered a total of 8.2 μg of I-PTH. After an equilibration period of 20 minutes, two 30-minute urine collections were obtained. In competition experiments, HPTH 7-84 was given five minutes prior to hPTH 1-84 at a molar ratio of 4:1.
Blood samples and blood pressure measurements were recorded at the beginning and end of the baseline period, at the beginning of the PTH infusion period, and at the end of the study. The concentration of inulin in plasma and urine was determined by the method of Führ, Kaczmarczyk, and Kruttgen, Klin Wochenschr, 33:729-730 (1955). The estimation of the glomerular filtration rate (GFR) by inulin clearance and the calculation of the fractional urinary excretion rate of phosphorus (FEP04) were performed in the standard fashion. Blood samples were centrifuged, and plasma phosphorus and calcium concentrations were measured.

[2] = tested on: rats having hypoparathyroidism (parathyroid glands removed); test: Serum calcium after i.v. injection in rats with parathyroid glands removed; format: in vivo, rat
Description: The CAP rebound effect is believed to be the body's response to an administration of CIP. This response occurs when the parathyroid gland cells secrete CAP in an effort to return the CAP/CIP ratio to homeostasis with the pre-CIP administration levels. PTH antagonist administration is not accompanied by hypercalcemia and osteosarcoma, as with direct CAP administration. […] All of the rats had their parathyroid glands removed. Five rats received an i.v. injection of a saline control. The serum calcium of the control rats was measured and on average was lowered over time by about 0.18 mg/dl by virtue of a parathyroidectomy. Nine rats received an i.v. injection (10 μg/kg) of hPTH obtained from Bachem, AG of Bubendorf, Switzerland. The serum calcium of the hPTH rats was measured and on average was raised over time by about 0.65 mg/dl. Five rats received an equimolar i.v. injection of a PTH7-84 (an exemplary PTH antagonist) also obtained from Bachem, AG of Bubendorf, Switzerland. The serum calcium of the PTH antagonist rats was measured and on average was lowered over time by about 0.30 mg/dl. Finally, six rats received an i.v. injection comprised of hPTH (10 μg/kg) and an equimolar amount of PTH antagonist PTH7-84. The serum calcium of the hPTH/PTH antagonist rats was measured and on average remained substantially the same over time, raising only about 0.03 mg/dl.

ROS/17.2 cells = test: cAMP production in osteoblastic cell line ROS/17.2; format: cell-based, rat; conditions: for intracellular cAMP: 10^-8 mol/L peptide, five-minute incubation, N=6, before treatment 18.1±1.25
Description: Osteoblastic cell line. To compare the biological effects of the two peptides (HPTH 1-84 and 7-84), intracellular cAMP production was measured in the rate osteosarcoma cell line ROS/17.2, which has an osteoblastic phenotype and is known to increase cAMP production in response to PTH. Cells were cultured in Ham's F12 media containing 10% fetal bovine serum. Cells were plated out in 12 well plates at a density of 30,000 cells per well and grown to confluence. Cells were washed three times with KHMS buffer at 37° C. (KCI 4.0 mmol/L, CaCl2 1.25 mmol/L, MgSO4 1.25 mmol/L, KH2PO4 1.2 mmol/L, HEPES 10 mmol/L, NaCl 100 mmol/L, NaHCO3 37 mmol/L, and glucose 10 mmol/L, pH 7.5). cAMP production was measured using 500 μL of KHMS buffer (37°) containing isobutyl-1 methylxantine (1BMX) 1.0 mmol/L and various concentrations (10^−11 to 10^−8 mol/L) of hPTH 1-84 or hPTH 7-84. After a five-minute incubation, 100 μL of 1.8 mol/L pechloric acid were added. After an additional five-minute incubation at room temperature, 100 μL of 3 mol/KHCO3 were added to neutralize the acid. Samples were centrifuged at 3000 rpm for 15 minutes, and the supernatants were assayed for cAMP [26].

[3] = tested on: parathyroidectomized (PTX) rats; test: Calcemic response in parathyroidectomized (PTX) rats fed a 0.02% calcium diet; format: in vivo, rat; conditions: hPTH 7-84 given 10 minutes prior to each hPTH 1-84 injection, 1:1 molar ratio, N=6
Description: Calcemic response. Normal female Sprague-Dawley rats weighing 225 to 250 g (Harlan, Indianapolis, Ind., USA) were parathyroidectomized (PTX) and fed a 0.02% calcium diet. Rats with a plasma calcium below 7.0 mg/dL after overnight fasting were included in the study. A 20 μg dose of hPTH 1-84 or 7-84 was given intraperitoneally to PTX rats in four doses of 5 μg each at 30-minute intervals (0, 30, 60, and 90 minutes). For control studies, the rats received vehicle (saline solution) alone. Blood was drawn via the tail at 0, 60, 90, and 120 minutes. For competition experiments, rats received an injection of hPTH 7-84 10 minutes prior to each injection of hPTH 1-84. The molar ratio of hPTH 7-84:hPTH 1-84 was 1:1.
Total plasma calcium levels were determined using an atomic absorption spectrophotometer (model 110B; Perkin Elmer, Norwalk, Conn., USA). Plasma phosphorus levels were determined using an autoanalyzer (COBAS MIRA Plus; Roche, Newark, N.J., USA).

| Molecule | glomerular filtration rate (GFR) ([1]; rats infused with hPTH 1-84 alone, N=10, control period 1.8±0.3) | fractional excretion of phosphate (FEP04) ([1]; rats infused with hPTH 1-84 alone, N=10, control period 11.9±2.4) | serum calcium raised over time (average) ([2]; i.v. injection 10 μg/kg hPTH alone, nine rats, saline control lowered about 0.18) | intracellular cAMP (ROS/17.2 cells) | cAMP production, dose dependence (ROS/17.2 cells; 10^-11 to 10^-8 mol/L peptide) | decrease of the increase in FEP04 (phosphaturia) induced by hPTH 1-84 ([1]; hPTH 7-84 coadministered with hPTH 1-84, molar ratio 4:1) | glomerular filtration rate (GFR), hPTH 7-84 given with hPTH 1-84 [1] | glomerular filtration rate (GFR), hPTH 7-84 given with hPTH 1-84 ([1]; listed as 7-84 PTH) | decrease of the calcemic response induced by hPTH 1-84 [3] | serum calcium lowered over time (average) ([2]; i.v. injection of PTH7-84 alone, equimolar to 10 μg/kg hPTH, five rats, saline control lowered about 0.18) | serum calcium raised over time (average), co-injection with hPTH ([2]; i.v. injection of hPTH (10 μg/kg) and an equimolar amount of PTH7-84, six rats) | antagonist property compared with PTH3-34 ([2]; prevention of the hPTH-induced serum calcium increase in rats) |
| --- | --- | --- | --- | --- | --- | --- | --- | --- | --- | --- | --- | --- |
| hPTH 1-84: Synthetic human PTH 1-84, the whole 84 amino acid parathyroid hormone (SEQ ID NO:1), PTH agonist, purchased from Bachem (peptide) SVSEIQLMHNLGKHLNSMERVEWLRKKLQDVHNFVALGAPLAPRDAGSQRPRKKEDNVLVESHEKSLGEANKADVNVLTKAKSQ | 1.8 ± 0.1 mL/min | 27.7±2.4% | about 0.65 mg/dl | 738±4.13 nmol/well and 738±4.1 nmol/well | increased cAMP production in a does-dependent manner; also recorded: increased cAMP production in a dose-dependent manner |  |  |  |  |  |  |  |
| hPTH 7-84: Synthetic human PTH 7-84 fragment, an exemplary PTH antagonist, obtained from Bachem (peptide) peptide: LMHNLGKHLNSMERVEWLRKKLQDVHNFVALGAPLAPRDAGSQRPRKKEDNVLVESHEKSLGEANKADVNVLTKAKSQ |  |  |  | no effect |  | 50.2% | 2.6 ± 0.2 mL/min | significant increase | 94% | about 0.30 mg/dl | about 0.03 mg/dl | much more potent in its antagonist property than the previously reported antagonist PTH3-34 |
